According to patent US20260356929 (published 2026):
Residue numbers refer to the chain shown, from its start.

B1: HC0 LC0 (chimeric Ab 1126) (antibody, V domains shown)
VH: EVKLLESGGGLVQPGGSLKLSCAASGFDFSRYWMSWVRQAPGKGLEWIGEIHPYSSTINYTPSVKDKFIISRDNAKNTLYLQMSEVRSEDTALYYCARAFAYWGQGTLVTVSA
VL: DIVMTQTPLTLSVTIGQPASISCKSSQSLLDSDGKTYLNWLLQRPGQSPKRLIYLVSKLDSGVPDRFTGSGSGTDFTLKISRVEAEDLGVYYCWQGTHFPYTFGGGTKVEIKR
B2: HC3 LC1 (antibody, V domains shown)
VH: EVQLVESGGGLVQPGGSLRLSCAASGFDFSRYWMSWVRQAPGKGLEWISEIHPYSSTINYTPSVKDRFTISRDNAKNSLYLQMNSLRDEDTALYYCARAFAYWGQGTLVTVSS
VL: DVVMTQSPLSLPVTLGQPASISCKSSQSLLDSDGKTYLNWFQQRPGQSPRRLIYLVSKLDSGVPDRFSGSGSGTDFTLKISRVEAEDVGVYYCWQGTHFPYTFGGGTKVEIKR
B3: HC2 LC1 (antibody, V domains shown)
VH: B2 VH with I48V, S49A, T69I, L79V, M83L, D88A, L93V
VL: B2 VL
B4: HC1 LC1 (antibody, V domains shown)
VH: B2 VH with V5L, Q13K, V37I, I48V, D88A, L93V
VL: B2 VL
B5: HC5 LC2 (antibody, V domains shown)
VH: B2 VH with I48V, D88A, L93V, S113A
VL: B2 VL with K24R, F41E, Q42L, G105Q
B6: HC4 LC2 (Vexobicizumab) (antibody, V domains shown)
VH: B2 VH with I48V, S49A, D88S, L93V
VL: B2 VL with K24R, F41E, Q42L, G105Q
B7: HC5 LC1 (antibody, V domains shown)
VH: B2 VH with I48V, D88A, L93V, S113A
VL: B2 VL
B8: HC2 LC2 (antibody, V domains shown)
VH: B2 VH with I48V, S49A, T69I, L79V, M83L, D88A, L93V
VL: B2 VL with K24R, F41E, Q42L, G105Q
B9: HC3 LC2 (antibody, V domains shown)
VH: B2 VH
VL: B2 VL with K24R, F41E, Q42L, G105Q
B10: HC1 LC2 (antibody, V domains shown)
VH: B2 VH with V5L, Q13K, V37I, I48V, D88A, L93V
VL: B2 VL with K24R, F41E, Q42L, G105Q
B11: HC4 LC1 (antibody, V domains shown)
VH: B2 VH with I48V, S49A, D88S, L93V
VL: B2 VL

Target: T1, human VEGF-A165b (human, UniProt P15692)
T1 chain: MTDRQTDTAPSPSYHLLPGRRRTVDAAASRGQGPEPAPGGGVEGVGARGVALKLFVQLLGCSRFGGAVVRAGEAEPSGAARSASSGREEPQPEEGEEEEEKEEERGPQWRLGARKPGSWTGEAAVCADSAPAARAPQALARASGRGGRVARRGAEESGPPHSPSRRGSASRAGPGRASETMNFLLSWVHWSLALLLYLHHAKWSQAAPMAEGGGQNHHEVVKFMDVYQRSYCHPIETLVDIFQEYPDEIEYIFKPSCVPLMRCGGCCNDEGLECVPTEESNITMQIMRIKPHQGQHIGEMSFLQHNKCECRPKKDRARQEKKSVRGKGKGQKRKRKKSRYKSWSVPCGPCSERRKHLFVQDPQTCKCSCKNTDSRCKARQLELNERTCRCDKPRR
Experiment: BLI 25C

Point of comparison: B7, Kd 3.2 nM. Against it:
- B1 — 11-fold lower, 0.3 nM
- B2 — 2.1-fold lower, 1.5 nM
- B3 — within 1.5-fold, 4.4 nM
- B4 — 1.6-fold higher, 5 nM
- B5 — 5.3-fold lower, 0.6 nM
- B6 — 5.3-fold lower, 0.6 nM
- B8 — within 1.5-fold, 3.6 nM
- B9 — 2.7-fold lower, 1.17 nM
- B10 — 1.5-fold lower, 2.1 nM
- B11 — 3.6-fold lower, 0.9 nM
